The text below walks through data of US20180118837A1 (Hoffmann-La Roche, published 2018).

Assay [1] deals with SBP-tagged HER3-ECD (human). Put plainly: ELISA-type assay, 10 nM Eu-labelled Heregulin-beta on plate-bound SBP-tagged HER3-ECD, M-05-74 titrated.
In assay [2] the target is T1, human recombinant HER3 ECD (human, UniProt P21860 20-643).
T1 construct: 68 kDa recombinant protein; also called human-Her3-ECD; full length Her3 ECD
Briefly: binding affinity; method not restated (evaluated 'as described above'); HER3-ECD without HRG.

In assay [3] the target is T2, HER3 ECD-HRG complex (human, UniProt P21860 20-643).
T2 construct: Her-3 ECD pre-incubated with a 5-fold molar excess of Heregulin; also called Heregulin/Her-3 ECD
T2 sequence (P21860 20-643 limits assumed, one chain of several): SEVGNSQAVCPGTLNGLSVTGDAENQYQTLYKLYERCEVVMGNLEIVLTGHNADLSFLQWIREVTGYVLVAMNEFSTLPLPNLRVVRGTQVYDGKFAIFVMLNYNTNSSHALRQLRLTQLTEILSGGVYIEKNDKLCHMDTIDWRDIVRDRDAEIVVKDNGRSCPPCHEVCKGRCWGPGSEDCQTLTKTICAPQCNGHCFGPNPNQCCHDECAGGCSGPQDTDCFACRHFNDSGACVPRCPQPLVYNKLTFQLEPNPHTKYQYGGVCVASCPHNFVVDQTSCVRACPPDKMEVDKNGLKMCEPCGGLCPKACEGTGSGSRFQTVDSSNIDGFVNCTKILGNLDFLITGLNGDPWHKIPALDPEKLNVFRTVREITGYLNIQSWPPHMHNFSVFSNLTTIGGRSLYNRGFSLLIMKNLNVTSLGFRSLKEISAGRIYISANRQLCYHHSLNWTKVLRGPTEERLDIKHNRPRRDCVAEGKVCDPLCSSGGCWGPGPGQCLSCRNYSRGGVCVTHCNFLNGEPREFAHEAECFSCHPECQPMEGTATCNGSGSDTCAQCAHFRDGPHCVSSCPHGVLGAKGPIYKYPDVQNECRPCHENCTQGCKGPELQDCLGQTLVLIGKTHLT
Briefly: binding affinity; method not restated (evaluated 'as described above').

For assay [4], the target named is T1, human recombinant HER3 ECD. Described as above.
The target of assay [5] is T2, HER3 ECD-HRG complex. Briefly: SPR Biacore T100, antibody captured.
The target in assay [6] is T3, HER4 ECD-HRG complex (human, UniProt Q15303 26-651).
T3 construct: Her-4 ECD pre-incubated with a 5-fold molar excess of Heregulin; also called Her-4 ECD/Heregulin complex
T3 sequence 1: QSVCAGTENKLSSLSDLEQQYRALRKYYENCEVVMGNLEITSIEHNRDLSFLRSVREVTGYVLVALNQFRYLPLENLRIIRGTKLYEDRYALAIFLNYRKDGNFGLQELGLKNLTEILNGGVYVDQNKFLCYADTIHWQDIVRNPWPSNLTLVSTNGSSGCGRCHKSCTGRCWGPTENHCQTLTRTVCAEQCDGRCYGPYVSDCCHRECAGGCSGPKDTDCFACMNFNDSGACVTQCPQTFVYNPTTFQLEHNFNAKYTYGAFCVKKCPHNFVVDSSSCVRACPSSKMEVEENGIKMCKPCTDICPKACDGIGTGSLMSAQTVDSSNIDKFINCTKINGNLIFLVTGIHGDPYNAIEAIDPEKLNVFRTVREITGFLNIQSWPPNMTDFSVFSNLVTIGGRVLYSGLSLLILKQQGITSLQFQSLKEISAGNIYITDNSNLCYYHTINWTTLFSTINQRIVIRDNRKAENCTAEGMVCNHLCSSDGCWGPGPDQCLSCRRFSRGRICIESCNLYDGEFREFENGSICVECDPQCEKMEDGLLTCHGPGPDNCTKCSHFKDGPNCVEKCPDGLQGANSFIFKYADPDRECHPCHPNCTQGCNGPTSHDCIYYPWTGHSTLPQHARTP
T3 sequence 2: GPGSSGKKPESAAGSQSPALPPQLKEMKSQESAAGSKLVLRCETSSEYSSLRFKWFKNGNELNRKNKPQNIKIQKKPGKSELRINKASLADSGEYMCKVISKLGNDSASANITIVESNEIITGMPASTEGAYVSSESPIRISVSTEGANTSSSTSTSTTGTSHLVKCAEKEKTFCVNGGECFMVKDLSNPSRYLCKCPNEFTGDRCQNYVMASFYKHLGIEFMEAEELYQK
Put plainly: SPR Biacore T100, antibody captured.

T1 sequence (P21860 20-643): as the sequence (P21860 20-643 limits assumed, one chain of several) above
SBP-tagged HER3-ECD (human), sequence (chain, as listed by the source limits assumed, form in doubt): as the sequence (P21860 20-643 limits assumed, one chain of several) above

As to “Europium-labeled Heregulin-beta (PeproTech, Cat. #100-03) (from UniProt Q02297-11 122-186) (ligand)”, in assay [1], the time-resolved fluorescence signal at the plateau, in the presence of M-05-74 was determined as 650.

B1: huMab M-05-74_5 (antibody, V domains shown)
VH: QVQLVQSGAELKKPGASVKVSCKASGYTLTDYWIHWVRQAPGQGLEWMGYINPYTGYTESNQKFQGRVTMTADTSTSTAYMELSSLRSEDTAVYYCARPYYYGDYWGQGTTVTVSS
VL: EIVLTQSPATLSLSPGERATLSCRASSSVSYMHWYQQKPGQAPRLLIYSTSNLATGIPARFSGSGSGTDFTLTISSLEPEDFAVYYCQQRSSYPFTFGQGTKLEIK
notes: Humanized variant of M-05-74
With B1, the Kd in assay [2] was determined as 3.2 nM; in assay [3], 4.1 nM.

B2: huMab M-05-74_6 (antibody, V domains shown)
VH: QVQLVQSGAELKKPGASVKVSCKASGYTLTDYWIHWVRQAPGQGLEWMGYINPYTGYTESNQKFQGRVTMTADTSTSTAYMELSSLRSEDTAVYYCARPYYYGDYWGQGTTVTVSS
VL: DIQMTQSPSSLSASVGDRVTITCRASSSVSYMHWFQQKPGKAPKLLIYSTSNLQSGVPSRFSGSGSGTDFTLTISSLQPEDFATYYCQQRSSYPFTFGQGTKLEIK
notes: Humanized variant of M-05-74
Regarding B2, the Kd in assay [4] came to 8.3 nM; in assay [3], 8.6 nM.

B3: anti-HER3/HER4 antibody M-05-74 (antibody, V domains shown)
VH: QVQLQQSGAELAKPGASVKMSCKTSGYTLTDYWIHWVKQRPGQGLEWIGYINPYTGYTESNQKFKDKATLTADKSSNTAYIQLSSLTSEDSAVYYCARPYYYGDYWGQGTTLTVSS
VL: QIVLTQSPAIMSASPGERVTITCSASSSVSYMHWFQQKPGTSPKLLIYSTSNLASGVPARFSGSGSGTSYSLTISRMEAEDAATYYCQQRSSYPFTFGSGTKLEIK
notes: Murine monoclonal antibody from hybridoma (culture supernatant or purified full length); also called M-074; M-5-74
Take B3: in assay [5], the “ratio MR (+Heregulin)/MR (-Heregulin), against HER3-ECD alone” value turned out to be 3 fold and the “ratio ka (+Heregulin)/ka (-Heregulin), against HER3-ECD alone” value turned out to be 4.85 fold. Moreover, in assay [6], the “ratio MR (+Heregulin)/MR (-Heregulin), against HER4-ECD alone” value is 6 fold and the “ratio ka (+Heregulin)/ka (-Heregulin), against HER4-ECD alone” value was 23.9 fold.
